The target of one data set is T1, DHX36 (Homo sapiens, UniProt Q9H2U1 SEQ:1-1008).
T1 chain: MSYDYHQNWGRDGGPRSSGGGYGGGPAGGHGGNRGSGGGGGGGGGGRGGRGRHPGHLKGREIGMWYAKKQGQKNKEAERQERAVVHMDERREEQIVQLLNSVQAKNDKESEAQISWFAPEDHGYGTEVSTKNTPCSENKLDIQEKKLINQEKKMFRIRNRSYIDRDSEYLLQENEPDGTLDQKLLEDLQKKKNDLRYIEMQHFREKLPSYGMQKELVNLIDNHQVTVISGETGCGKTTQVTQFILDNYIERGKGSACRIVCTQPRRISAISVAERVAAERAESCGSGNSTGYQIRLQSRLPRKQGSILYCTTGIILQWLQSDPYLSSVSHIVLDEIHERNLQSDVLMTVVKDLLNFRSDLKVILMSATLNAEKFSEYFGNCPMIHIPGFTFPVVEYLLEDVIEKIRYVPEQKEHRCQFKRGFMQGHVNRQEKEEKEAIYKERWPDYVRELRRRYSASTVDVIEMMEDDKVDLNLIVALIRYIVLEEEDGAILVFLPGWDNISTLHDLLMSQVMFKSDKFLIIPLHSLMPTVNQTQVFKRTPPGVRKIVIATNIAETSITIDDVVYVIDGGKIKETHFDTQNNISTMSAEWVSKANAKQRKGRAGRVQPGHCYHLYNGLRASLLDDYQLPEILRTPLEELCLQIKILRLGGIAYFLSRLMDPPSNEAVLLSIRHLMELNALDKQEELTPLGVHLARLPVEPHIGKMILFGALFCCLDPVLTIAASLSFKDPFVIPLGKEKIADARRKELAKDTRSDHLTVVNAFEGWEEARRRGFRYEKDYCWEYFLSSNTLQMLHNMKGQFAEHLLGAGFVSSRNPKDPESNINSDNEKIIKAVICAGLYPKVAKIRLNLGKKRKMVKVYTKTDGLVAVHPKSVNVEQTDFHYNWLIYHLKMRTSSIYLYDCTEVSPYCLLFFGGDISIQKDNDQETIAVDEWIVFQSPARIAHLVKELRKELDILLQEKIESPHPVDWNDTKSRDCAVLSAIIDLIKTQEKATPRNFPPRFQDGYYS
The data set is described as follows: EMSA; strong gel shift bands with DHX36; data not shown; exact label of the oligo not stated. To be noted: label: 5' HEX; RNA G-quadruplex with 3' flank. For orientation: A gel shift assay detects complexes by their altered migration in electrophoresis.

For data set [1], the target named is T2, RHAU53 peptide (DHX36 rG4-binding domain) (synthetic construct, UniProt Q9H2U1 SEQ:1-53).
T2 sequence: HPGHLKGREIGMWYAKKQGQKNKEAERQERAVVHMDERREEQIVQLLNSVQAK
Put plainly: EMSA; 100 nM RHAU53; binding to APP rG4 region inhibited by L-Apt.4-1c-ASO15nt(APP); data not shown; 37 C, KCl, MgCl2. To be noted: protein: synthetic; tags: none, chemically synthesized by Synpeptide; label: 5' HEX; RNA G-quadruplex with 3' flank. As for the experimental part: L-Apt.4-1c-ASO15nt_{(APP)} conjugate was serial diluted, and then the conjugate and HEX APP rG4 wt region were firstly refolded by heating at 95° C. for 5 min, 25° C. for 5 min, then 4° C. for at least 30 min separately in buffer containing 150 mM KCl, 1 mM MgCl₂, 25 mM Tris-HCl (pH 7.5) and 8% sucrose separately. 48 nM DHX36 protein (SEQ ID NO: 41) (or 100 nM RHAU53 peptide (SEQ ID NO: 42)), HEX_APP rG4 wt region (SEQ ID NO: 12) and L-Apt.4-1c-ASO15nt_{(APP)} were mixed and incubated for 30 min at 37° C. for competition binding. Then, the samples were loaded and resolved in 6% (37.5:1, acrylamide/bis-acrylamide) native gel for 70min at 35 mA at 4° C. in the running buffer containing 50 mM KOAc, 25 mM Tris-HCl (pH 7.5), 1 mM MgCl₂ (for DHX36) or running at 12.5 mA for 75 min in buffer containing 0.5×TBE and 40 mM KOAc (for RHAU53). At last, gels were scanned using Typhoon laser-scanner platform (Cytiva). Gel pictures were analyzed by image J software.

The values that follow come from US20250354149, “L-RNA APTAMER-ANTISENSE OLIGONUCLEOTIDE CONJUGATES AND USES THEREOF” (CITY UNIVERSITY OF HONG KONG, published 2025).

As to GGGGCGGGUGGGGAGGGGUGCUCUGCUGGUCUUCAAUU (ssRNA) [APP rG4 wt region (HEX)], the binding result (in the data set with DHX36; in data set [1]) was “binds” in each case.
